# How the values were obtained:
# Experiment in all cases: SPR
# [1] = target: MEDI4212 wild-type (WT) monoclonal antibody (human)
# MEDI4212 aFuc (human) = target: MEDI4212 aFuc (human)
# [2] = target: MEDI4212 3M (S239D/A330L/I332E) (human)
# [3] = target: MEDI4212 2M2 (S239D/I332E) (human)
Kd [1],Kd (MEDI4212 aFuc (human)),Kd [2],Kd [3],Substance
4960 nM,389 nM,36 nM,67 nM,Flag-tagged hFcγRIIIa (158F) (from UniProt P08637 17-254) (receptor)
502 nM,50 nM,7 nM,7 nM,Flag-tagged hFcγRIIIa (158V) (receptor)
